Results as given in US20210253715A1 (NATIONAL RESEARCH COUNCIL OF CANADA, published 2021).

Tests used:
human IGF1R [1] = molecular target: T1, human IGF1R (human, UniProt P08069 31-932, limits assumed); assay: SPR, Biacore T200, hIGF1R immobilised on CM4 chip; parental VHH, not the IDS fusion
T1 construct: also called hIGF1R; h-IGF1R

human IGF1R [2] = molecular target: T1, human IGF1R; assay: SPR (Biacore T200), hIGF1R immobilised on CM4 chip, analyte injected at 20 nM, 25 C
Protocol: (§1) Surface Plasmon Resonance (SPR) analysis was performed to determine the affinity of the IGF1R3H5-IDS construct towards human IGF1R (hIGR1R). The SPR analysis was performed on a Biacore T200 (GE Healthcare) under the following conditions. hIGF1R was immobilized on a CM4 chip at high density (FC1—ethanoloamine blocked; FC3—2,500 RUs of hIGF1R). A variable concentration of the flowing molecule was used, with contact and dissociations times of 300 and 400 s, respectively. The assay was performed at 25° C. with a flow rate of 40 μL/min and the chip was regenerated in 10 mM glycine (pH 5.5). […] In summary, the IGF1R3H5-IDS construct retains its ability to bind to the target receptor IGF1R.

human IGF1R [3] = molecular target: T1, human IGF1R; assay: SPR (Biacore T200), hIGF1R immobilised on CM4 chip, analyte injected at 50 nM, 25 C; text says matrix effects lower the on-rate at this concentration
Protocol: as §1

human IGF1R [4] = molecular target: T1, human IGF1R; assay: SPR (Biacore T200), hIGF1R immobilised on CM4 chip, analyte injected at 2.5 nM, 25 C
Protocol: as §1

human IGF1R [5] = molecular target: T1, human IGF1R; assay: SPR, Biacore T200, hIGF1R immobilised on CM4 chip, analyte at 2.5 nM (FIG. 5C); analyte at 2.5 nM (FIG. 5C)
Protocol: as §1

human IGF1R [6] = molecular target: T1, human IGF1R; assay: SPR (Biacore T200), hIGF1R immobilised on CM4 chip, analyte injected at 50 nM, 25 C; text calls the affinity at this concentration inaccurate (matrix effects)
Protocol: as §1

human IGF1R [7] = molecular target: T1, human IGF1R; assay: SPR, Biacore T200, hIGF1R immobilised on CM4 chip, analyte at 50 nM (FIG. 5D); the filing calls this value inaccurate because of matrix effects; analyte at 50 nM (FIG. 5D); matrix effects, called inaccurate
Protocol: as §1

T1 sequence (P08069 31-932 limits assumed): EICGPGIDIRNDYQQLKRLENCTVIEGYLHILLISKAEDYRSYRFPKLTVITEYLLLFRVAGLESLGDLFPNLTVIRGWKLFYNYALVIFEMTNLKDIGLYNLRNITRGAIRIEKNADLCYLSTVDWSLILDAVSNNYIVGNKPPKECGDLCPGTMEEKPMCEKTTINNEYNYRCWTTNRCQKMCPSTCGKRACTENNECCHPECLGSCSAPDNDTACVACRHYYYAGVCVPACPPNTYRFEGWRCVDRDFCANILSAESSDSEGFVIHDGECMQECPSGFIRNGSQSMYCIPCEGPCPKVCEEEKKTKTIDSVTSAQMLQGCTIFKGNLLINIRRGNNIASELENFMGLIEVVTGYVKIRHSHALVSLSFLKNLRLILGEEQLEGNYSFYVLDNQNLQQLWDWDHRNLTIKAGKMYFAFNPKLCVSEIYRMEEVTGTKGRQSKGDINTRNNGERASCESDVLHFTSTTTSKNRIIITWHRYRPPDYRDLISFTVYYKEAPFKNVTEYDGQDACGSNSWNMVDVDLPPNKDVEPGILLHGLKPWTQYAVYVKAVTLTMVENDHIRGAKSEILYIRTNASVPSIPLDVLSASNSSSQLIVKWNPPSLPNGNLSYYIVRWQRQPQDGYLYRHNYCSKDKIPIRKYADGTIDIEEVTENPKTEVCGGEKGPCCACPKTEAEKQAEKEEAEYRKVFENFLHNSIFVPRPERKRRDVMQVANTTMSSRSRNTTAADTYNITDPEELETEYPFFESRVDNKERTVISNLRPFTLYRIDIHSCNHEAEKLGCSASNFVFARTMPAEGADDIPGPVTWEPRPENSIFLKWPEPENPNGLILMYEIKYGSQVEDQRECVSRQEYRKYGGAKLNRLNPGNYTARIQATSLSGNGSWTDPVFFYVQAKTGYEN

Row | Kd (human IGF1R [1]) [nM] | koff (human IGF1R [1]) [s⁻¹] | kon (human IGF1R [1]) [M⁻¹ s⁻¹] | Kd (human IGF1R [2]) [nM] | koff (human IGF1R [2]) [s⁻¹] | kon (human IGF1R [2]) [M⁻¹ s⁻¹] | koff (human IGF1R [3]) [s⁻¹] | kon (human IGF1R [3]) [M⁻¹ s⁻¹] | Kd (human IGF1R [4]) [nM] | koff (human IGF1R [4]) [s⁻¹] | kon (human IGF1R [4]) [M⁻¹ s⁻¹] | Kd (human IGF1R [5]) [nM] | Kd (human IGF1R [6]) [nM] | Kd (human IGF1R [7]) [nM] | Binder
1 | 7.5 | 0.00251 | 334000 |  |  |  |  |  |  |  |  |  |  |  | IGF1R3H5 VHH (VHH, also called parental VHH IGF1R3H5) VHH: EVQLVESGGGLVQPGGSLRLSCAASEYPSNFYAMSWFRQAPGKEREFVSGVSRDGLTTLYADSVKGRFTISRDNSKNTLYLQMNSLRAEDTAVYYCAIVITGVWNKVDVNSRSYHYWGQGTLVTVSS
2 |  |  |  | 40.2 | 0.00289 | 71900 |  |  |  |  |  |  |  |  | IGF1R3H5-IDS (uncapped) (other, phosphorylated N-glycans; Man-6-P uncapped by Jack Bean alpha-mannosidase (JBMan) treatment, Single-chain fusion of a VHH with an enzyme, made in Yarrowia lipolytica; the two differ only in N-glycan uncapping; also called uncapped IGF1R3H5-IDS; P454) EVQLVESGGGLVQPGGSLRLSCAASEYPSNFYAMSWFRQAPGKEREFVSGVSRDGLTTLYADSVKGRFTISRDNSKNTLYLQMNSLRAEDTAVYYCAIVITGVWNKVDVNSRSYHYWGQGTLVTVSSGGGGSGGGGSGGGGSGGGGSGGGGSSETQANSTTDALNVLLIIVDDLRPSLGCYGDKLVRSPNIDQLASHSLLFQNAFAQQAVCAPSRVSFLTGRRPDTTRLYDFNSYWRVHAGNFSTIPQYFKENGYVTMSVGKVFHPGISSNHTDDSPYSWSFPPYHPSSEKYENTKTCRGPDGELHANLLCPVDVLDVPEGTLPDKQSTEQAIQLLEKMKTSASPFFLAVGYHKPHIPFRYPKEFQKLYPLENITLAPDPEVPDGLPPVAYNPWMDIRQREDVQALNISVPYGPIPVDFQRKIRQSYFASVSYLDTQVGRLLSALDDLQLANSTIIAFTSDHGWALGEHGEWAKYSNFDVATHVPLIFYVPGRTASLPEAGEKLFPYLDPFDSASQLMEPGRQSMDLVELVSLFPTLAGLAGLQVPPRCPVPSFHVELCREGKNLLKHFRFRDLEEDPYLPGNPRELIAYSQYPRPSDIPQWNSDKPSLKDIKIMGYSIRTIDYRYTVWVGFNPDEFLANFSDIHAGELYFVDSDPLQDHNMYNDSQGGDLFQLLMPHHHHHHHHWSHPQFEK
3 |  |  |  | 46.1 | 0.00295 | 64000 | 0.0029 | 42000 | 7.42 | 0.00288 | 388000 | ~7 | 69.8 | ~70 | IGF1R3H5-IDS (capped) (other, phosphorylated N-glycans; Man-6-P still capped (no uncapping), also called capped IGF1R3H5-IDS) EVQLVESGGGLVQPGGSLRLSCAASEYPSNFYAMSWFRQAPGKEREFVSGVSRDGLTTLYADSVKGRFTISRDNSKNTLYLQMNSLRAEDTAVYYCAIVITGVWNKVDVNSRSYHYWGQGTLVTVSSGGGGSGGGGSGGGGSGGGGSGGGGSSETQANSTTDALNVLLIIVDDLRPSLGCYGDKLVRSPNIDQLASHSLLFQNAFAQQAVCAPSRVSFLTGRRPDTTRLYDFNSYWRVHAGNFSTIPQYFKENGYVTMSVGKVFHPGISSNHTDDSPYSWSFPPYHPSSEKYENTKTCRGPDGELHANLLCPVDVLDVPEGTLPDKQSTEQAIQLLEKMKTSASPFFLAVGYHKPHIPFRYPKEFQKLYPLENITLAPDPEVPDGLPPVAYNPWMDIRQREDVQALNISVPYGPIPVDFQRKIRQSYFASVSYLDTQVGRLLSALDDLQLANSTIIAFTSDHGWALGEHGEWAKYSNFDVATHVPLIFYVPGRTASLPEAGEKLFPYLDPFDSASQLMEPGRQSMDLVELVSLFPTLAGLAGLQVPPRCPVPSFHVELCREGKNLLKHFRFRDLEEDPYLPGNPRELIAYSQYPRPSDIPQWNSDKPSLKDIKIMGYSIRTIDYRYTVWVGFNPDEFLANFSDIHAGELYFVDSDPLQDHNMYNDSQGGDLFQLLMPHHHHHHHHWSHPQFEK
